Article PMC2919055 (Proteins, 2010)
Values joined by “and” are separate entries in the source; they are usually repeats but may differ in a detail not shown here. Equal entries are not always repeated. *: point of attachment. Carboxymethyl = O=C(O)C*

Target: the molecule itself
Assay: cross-linking

B1: C-MBD of A. fulgidus CopA with carboxymethylated cysteines (domain or fragment, Archaeoglobus fulgidus, UniProt O29777 736-804, looked up)
chain: GDSVEKIVLELSGLSC(Carboxymethyl)HHC(Carboxymethyl)VARVKKALEEAGAKVEKVDLNEAVVAGNKEDVDKYIKAVEAAGYQAKLRS
stoichiometry N: 2 and 4
